Target: T1, IQ Probe (internally quenched linear polypeptide containing the S01 substrate)
T1 chain: LSGRSDNH

B1: Recombinant human MT-SP1 (membrane type serine protease 1; R&D Systems 3946-SEB) (protein)
chain: VVGGTDADEGEWPWQVSLHALGQGHICGASLISPNWLVSAAHCYIDDRGFRYSDPTQWTAFLGLHDQSQRSAPGVQERRLKRIISHPFFNDFTFDYDIALLELEKPAEYSSMVRPICLPDASHVFPAGKAIWVTGWGHTQYGGTGALILQKGEIRVINQTTCENLLPQQITPRMMCVGFLSGGVDSCQGDSGGPLSSVEADGRIFQAGVVSWGDGCAQRNKPGVYTRLPLFRDWIKENTGV
kcat/KM of the S01 substrate, IQ Probe relative to C225-S01: 4.6× and 3.5× times, respectively
